From PMC10397247

T1: O5-bP
T1 chain: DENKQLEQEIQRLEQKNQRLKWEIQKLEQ

T2: O15-bP
T2 chain: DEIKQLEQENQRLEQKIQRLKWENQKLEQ

T3: O14-bP
T3 chain: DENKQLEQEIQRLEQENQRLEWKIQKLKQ

T4: O9-bP
T4 chain: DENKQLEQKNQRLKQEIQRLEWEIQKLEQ

T5: O12-bP
T5 chain: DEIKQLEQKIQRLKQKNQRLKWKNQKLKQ

T6: O4-bP
T6 chain: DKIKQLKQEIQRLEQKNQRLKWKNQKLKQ

T7: O16-bP
T7 chain: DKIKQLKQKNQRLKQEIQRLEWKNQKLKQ

T8: O2-bP
T8 chain: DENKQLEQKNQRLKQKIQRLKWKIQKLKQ

T9: O6-bP
T9 chain: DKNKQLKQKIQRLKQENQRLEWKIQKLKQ

T10: O8-bP
T10 chain: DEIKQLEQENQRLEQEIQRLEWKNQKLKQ

T11: O7-bP
T11 chain: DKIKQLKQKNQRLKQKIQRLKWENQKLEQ

T12: O13-bP
T12 chain: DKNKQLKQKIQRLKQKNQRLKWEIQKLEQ

T13: O3-bP
T13 chain: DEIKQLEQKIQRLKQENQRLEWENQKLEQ

T14: 4H4038-bH
T14 chain: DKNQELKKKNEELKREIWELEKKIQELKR

T15: 4H3592-bH
T15 chain: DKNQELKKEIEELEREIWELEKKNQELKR

T16: 4H1406-bH
T16 chain: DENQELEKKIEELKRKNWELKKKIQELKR

T17: 4H3907-bH
T17 chain: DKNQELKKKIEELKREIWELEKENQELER

T18: 4H3601-bH
T18 chain: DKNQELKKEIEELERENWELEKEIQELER


How the values were obtained:
Assay in all cases: two-hybrid library CCNG1;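 further: natural log of median RNA to DNA barcode read ratio; higher means stronger binding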
O5-bP = target: T1, O5-bP
O15-bP = target: T2, O15-bP
O14-bP = target: T3, O14-bP
O9-bP = target: T4, O9-bP
O12-bP = target: T5, O12-bP
O4-bP = target: T6, O4-bP
O16-bP = target: T7, O16-bP
O2-bP = target: T8, O2-bP
O6-bP = target: T9, O6-bP
O8-bP = target: T10, O8-bP
O7-bP = target: T11, O7-bP
O13-bP = target: T12, O13-bP
O3-bP = target: T13, O3-bP
4H4038-bH = target: T14, 4H4038-bH
4H3592-bH = target: T15, 4H3592-bH
4H1406-bH = target: T16, 4H1406-bH
4H3907-bH = target: T17, 4H3907-bH
4H3601-bH = target: T18, 4H3601-bH

interaction score (O5-bP) | interaction score (O15-bP) | interaction score (O14-bP) | interaction score (O9-bP) | interaction score (O12-bP) | interaction score (O4-bP) | interaction score (O16-bP) | interaction score (O2-bP) | interaction score (O6-bP) | interaction score (O8-bP) | interaction score (O7-bP) | interaction score (O13-bP) | interaction score (O3-bP) | interaction score (4H4038-bH) | interaction score (4H3592-bH) | interaction score (4H1406-bH) | interaction score (4H3907-bH) | interaction score (4H3601-bH) | Binder
-0.621 | -0.827 | -0.196 | 0.055 | -0.0984 | 0.355 | -0.648 | -1.14 | -1.02 | -1.25 | -0.715 | -0.964 | -1.45 |  |  |  |  |  | DEIKQLEQKIQRLKQKNQRLKWKNQKLKQ [O12-bP]
 |  |  |  |  |  |  |  |  |  |  |  |  | -0.136 | 1.08 | -0.652 | 1.11 | 0.0362 | DENQELEKKIEELKRKNWELKKKIQELKR [4H1406-bH]
